In the RNAGym collection of RNA variant scans (doi:10.1093/molbev/msab373):

B1: Azoarcus group I ribozyme (parent)
chain: GUGCCUUGCGCCGGGAAACCACGCAAGGGAUGGUGUCAAAUUCGGCGAAACCUAAGCGCCCGCCCGGGCGUAUGGCAACGCCGAGCCAAGCUUCGGCGCCUGCGCCGAUGAAGGUGUAGAGACUAGACGGCACCCACCUAAGGCAAACGCUAUGGUGAAGGCAUAGUCCAGGGAGUGGCGAAAGUCACACAAACCGG

Variants of: B1
Experiment: reverse-splicing fitness (ratio to wild type); higher = more active; in vitro selection; Mg2+ level not given
Procedure, shortened: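 An in vitro group I ribozyme library with randomized positions was T7-transcribed and gel-purified. In triplicate, 10 pmol RNA in EPPS pH 7.5 was reacted with 50 pmoles of a 30-nt RNA substrate for 1 h at 37 °C across several added MgCl2 levels (1–48 mM), then stopped with EDTA. Products were reverse transcribed from a substrate-complementary primer, PCR-amplified and sequenced (HiSeq 4000). Fitness is a variant's read proportion after selection over that before, normalised to wild type.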

Variant	reverse-splicing fitness
C82U A111C C150G U176G	0.00363
C82U A111C C150G U176A	0.00801
C82U A111C C150G C169A U176A	0.00878
C82U A111C C150G C169A U176C	0.00957
C82U A111C C150G C169A U176G	0.00672
C82U A111G A120C A145G C150G C169A U176A	0.0113
C82U A111G A120C A145G C150G C169A U176C	0.0107
C82U A111G A120C A145G C150G C169A U176G	0.00661
C82U A111C A145U C150U C169A U176A	0.0126
C82U A111C A145U C150U C169A U176C	0.011
C82U A111C A145U C150U C169A U176G	0.00765
C82U A111G A120C A145U C169G U176C	0.00823
C82U A111G A120C A145U C169G U176A	0.00935
C82U A111G A120C A145U C169G U176G	0.00375
C82U A111C C169G U176A	0.0181
C82U A111C C169G U176C	0.024
C82U A111C C169G U176G	0.007
C82U A111C A145U C150U C169A	0.00889
C82U A111C A145U C150U C169U	0.0107
C82U A111C A145U C150U C169G	0.00836
C82U A111G A120C A145C C150U C169U	0.00927

Variant	reverse-splicing fitness
C82U A111G A120C A145C C150U C169G	0.0077
C82U A111G A120C A145C C150U C169A	0.00705
C82U A111G A120C A145U C150A U176C	0.0125
C82U A111G A120C A145U C150A U176G	0.0049
C82U A111G A120C A145U C150A U176A	0.0116
C82U A111C U176A	0.0847
C82U A111C U176G	0.02
C82U A111C U176C	0.104
C82U A111G A120C A145U C169U U176A	0.0139
C82U A111G A120C A145U C169U U176G	0.00307
C82U A111G A120C A145U C169U U176C	0.0132
C82U A111C C150A C169G U176G	0.00835
C82U A111C C150A C169G U176A	0.0162
C82U A111C C150A C169G U176C	0.0236
C82U A111G A120C A145C C150A U176C	0.00767
C82U A111G A120C A145C C150A U176G	0.0038
C82U A111G A120C A145C C150A U176A	0.00938
C82U A111C A145U U176C	0.103
C82U A111C A145U U176G	0.0238
C82U A111C A145U U176A	0.0808
C82U A111C A145U C150U	0.148

Variant	reverse-splicing fitness
C82U A111C A145U C150U C169G U176C	0.0165
C82U A111C A145U C150U C169G U176G	0.00709
C82U A111C A145U C150U C169G U176A	0.0121
C82U A111G A120C A145G C169G U176G	0.00407
C82U A111G A120C A145G C169G U176A	0.0181
C82U A111G A120C A145G C169G U176C	0.0179
C82U A111G A120C A145C C150U	0.0145
C82U A111G A120C A145C C150G	0.00936
C82U A111G A120C A145C C150A	0.00803
C82U A111G A120C A145U C150U C169A	0.00793
C82U A111G A120C A145U C150U C169U	0.00989
C82U A111G A120C A145U C150U C169G	0.008
C82U A111G A120C A145U C150U	0.0338
C82U A111G A120C A145U C150A	0.0105
C82U A111G A120C A145U C150G	0.00964
C82U A111G A120C A145C C150G U176A	0.00388
C82U A111G A120C A145C C150G U176G	0.00231
C82U A111G A120C A145C C150G U176C	0.00742
C82U A111G A120C A145U C150G C169G	0.00698
C82U A111G A120C A145U C150G C169A	0.00804
C82U A111G A120C A145U C150G C169U	0.00776

Variant	reverse-splicing fitness
C82U A111G A120C A145C C150U U176A	0.0105
C82U A111G A120C A145C C150U U176C	0.0114
C82U A111G A120C A145C C150U U176G	0.00465
C82U A111G A120C A145C C150A C169A U176C	0.00523
C82U A111G A120C A145C C150A C169A U176G	0.00444
C82U A111G A120C A145C C150A C169A U176A	0.0104
C82U A111G A120C C150G C169A U176A	0.00865
C82U A111G A120C C150G C169A U176C	0.0113
C82U A111G A120C C150G C169A U176G	0.00578
C82U A111G A120C A145C C150A C169U U176C	0.0104
C82U A111G A120C A145C C150A C169U U176A	0.0146
C82U A111G A120C A145C C150A C169U U176G	0.00393
C82U A111G A120C A145C C150U C169U U176A	0.0144
C82U A111G A120C A145C C150U C169U U176C	0.00942
C82U A111G A120C A145C C150U C169U U176G	0.00402
C82U A111C C150U C169U U176A	0.0192
C82U A111C C150U C169U U176G	0.00713
C82U A111C C150U C169U U176C	0.0145
C82U A111G A120C A145U C150U C169G U176C	0.0121
C82U A111G A120C A145U C150U C169G U176A	0.0133
C82U A111G A120C A145U C150U C169G U176G	0.00414
